We go through seven molecules from patent publication US20210388081A1 (Memorial Sloan Kettering, published 2021).

Assay [1] deals with T1, FcRL1, overexpressed on 3T3 cells (UniProt Q96LA6 17-429, limits assumed).
T1 construct: whole, on cells
T1 sequence (looked up): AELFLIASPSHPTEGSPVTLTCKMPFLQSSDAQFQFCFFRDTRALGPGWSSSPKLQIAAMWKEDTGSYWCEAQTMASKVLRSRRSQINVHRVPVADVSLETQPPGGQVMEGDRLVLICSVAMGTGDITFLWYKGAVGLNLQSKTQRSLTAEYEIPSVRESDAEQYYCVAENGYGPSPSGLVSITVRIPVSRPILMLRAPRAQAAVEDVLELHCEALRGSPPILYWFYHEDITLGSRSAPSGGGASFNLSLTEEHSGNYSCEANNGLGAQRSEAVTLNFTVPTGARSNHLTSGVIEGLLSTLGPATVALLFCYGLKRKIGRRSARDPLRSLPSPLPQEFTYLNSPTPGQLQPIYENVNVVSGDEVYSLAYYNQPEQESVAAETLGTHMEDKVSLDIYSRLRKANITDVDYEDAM
The assay is described as follows: phage clone on 3T3-FcRL1 cells.

Assay [2] deals with T2, FcRL2, overexpressed on 3T3 cells (UniProt Q96LA5 20-508, limits assumed).
T2 construct: whole, on cells
T2 sequence (looked up): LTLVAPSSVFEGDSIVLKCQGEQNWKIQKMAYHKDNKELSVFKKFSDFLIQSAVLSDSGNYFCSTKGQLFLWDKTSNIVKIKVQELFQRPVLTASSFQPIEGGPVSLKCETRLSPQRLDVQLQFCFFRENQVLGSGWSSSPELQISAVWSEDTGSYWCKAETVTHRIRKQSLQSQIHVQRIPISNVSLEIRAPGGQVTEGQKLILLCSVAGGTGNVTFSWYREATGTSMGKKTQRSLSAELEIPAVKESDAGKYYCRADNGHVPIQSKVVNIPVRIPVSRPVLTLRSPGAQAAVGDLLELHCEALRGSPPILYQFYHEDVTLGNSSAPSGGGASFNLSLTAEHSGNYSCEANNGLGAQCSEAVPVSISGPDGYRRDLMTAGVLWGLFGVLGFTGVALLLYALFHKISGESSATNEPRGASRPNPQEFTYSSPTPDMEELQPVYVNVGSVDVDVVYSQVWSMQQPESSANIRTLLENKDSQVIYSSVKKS
The assay is described as follows: phage clone on 3T3-FcRL2 cells.

In assay [3] the target is T3, Fc Receptor-like 5 (FcRL5), full length, overexpressed on 3T3 or Raji cells (human, UniProt Q96RD9 16-977).
T3 construct: also called 3T3-FcRL5
T3 sequence: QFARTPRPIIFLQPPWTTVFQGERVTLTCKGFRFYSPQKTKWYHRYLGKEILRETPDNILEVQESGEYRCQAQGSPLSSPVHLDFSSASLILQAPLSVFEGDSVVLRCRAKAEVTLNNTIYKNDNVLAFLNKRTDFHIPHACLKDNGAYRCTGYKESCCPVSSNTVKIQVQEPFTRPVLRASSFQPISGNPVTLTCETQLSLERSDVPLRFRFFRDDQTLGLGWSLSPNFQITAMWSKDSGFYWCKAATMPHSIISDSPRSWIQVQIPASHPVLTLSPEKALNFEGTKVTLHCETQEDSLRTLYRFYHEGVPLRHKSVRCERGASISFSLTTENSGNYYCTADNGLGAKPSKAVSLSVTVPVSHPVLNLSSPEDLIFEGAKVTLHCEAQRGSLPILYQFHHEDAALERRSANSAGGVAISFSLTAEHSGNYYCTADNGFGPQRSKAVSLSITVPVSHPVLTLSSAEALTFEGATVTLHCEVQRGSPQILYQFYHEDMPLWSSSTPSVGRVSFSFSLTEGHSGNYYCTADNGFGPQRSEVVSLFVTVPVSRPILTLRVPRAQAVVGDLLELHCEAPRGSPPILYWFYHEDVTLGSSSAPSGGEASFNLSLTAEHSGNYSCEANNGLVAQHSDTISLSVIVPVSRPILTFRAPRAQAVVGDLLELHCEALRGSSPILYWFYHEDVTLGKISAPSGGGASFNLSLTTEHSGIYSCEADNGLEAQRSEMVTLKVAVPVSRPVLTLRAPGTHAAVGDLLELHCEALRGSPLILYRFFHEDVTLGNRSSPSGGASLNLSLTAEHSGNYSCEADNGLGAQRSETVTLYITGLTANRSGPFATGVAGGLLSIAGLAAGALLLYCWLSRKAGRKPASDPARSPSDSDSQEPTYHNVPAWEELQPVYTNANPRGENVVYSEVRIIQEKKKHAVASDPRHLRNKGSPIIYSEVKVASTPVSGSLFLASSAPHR
The assay is described as follows: phage clone screening on cells. The essentials:
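scFv phage clones were incubated with live 3T3 cells overexpressing full-length FcRL5, then detected with mouse anti-M13 mAb and PE-anti-mouse Ig by flow cytometry. 3T3 cells expressing FcRL1, 2, 3, 4 or 6 served as negative-control targets.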

The target of assay [4] is T4, FcRL3, overexpressed on 3T3 cells (UniProt Q96P31 18-734, limits assumed).
T4 construct: whole, on cells
T4 sequence (looked up): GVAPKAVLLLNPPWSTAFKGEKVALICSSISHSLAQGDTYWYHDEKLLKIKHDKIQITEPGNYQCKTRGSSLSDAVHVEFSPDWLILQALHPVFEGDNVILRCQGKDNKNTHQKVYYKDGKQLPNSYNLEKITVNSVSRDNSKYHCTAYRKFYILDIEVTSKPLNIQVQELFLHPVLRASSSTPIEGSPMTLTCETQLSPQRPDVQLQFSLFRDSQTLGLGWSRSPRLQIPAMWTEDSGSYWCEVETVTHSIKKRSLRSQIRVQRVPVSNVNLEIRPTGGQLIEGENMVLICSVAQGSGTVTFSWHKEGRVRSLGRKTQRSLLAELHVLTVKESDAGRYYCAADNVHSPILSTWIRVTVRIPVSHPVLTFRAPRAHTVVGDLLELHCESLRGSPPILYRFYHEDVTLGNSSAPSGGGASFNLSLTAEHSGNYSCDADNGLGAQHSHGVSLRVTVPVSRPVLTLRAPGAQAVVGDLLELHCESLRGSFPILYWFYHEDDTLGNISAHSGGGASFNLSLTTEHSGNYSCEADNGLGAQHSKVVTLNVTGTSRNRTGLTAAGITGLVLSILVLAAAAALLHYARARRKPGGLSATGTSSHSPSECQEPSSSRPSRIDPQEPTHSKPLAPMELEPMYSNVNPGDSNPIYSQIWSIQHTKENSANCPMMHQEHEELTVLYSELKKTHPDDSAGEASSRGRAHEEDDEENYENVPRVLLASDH
The assay is described as follows: phage clone on 3T3-FcRL3 cells.

The next assay deals with SLAMF9 protein (UniProt Q96A28 19-236, limits assumed). The experiment in a line: phage clone on SLAMF9 protein.
Chain of SLAMF9 protein (Q96A28 19-236 limits assumed): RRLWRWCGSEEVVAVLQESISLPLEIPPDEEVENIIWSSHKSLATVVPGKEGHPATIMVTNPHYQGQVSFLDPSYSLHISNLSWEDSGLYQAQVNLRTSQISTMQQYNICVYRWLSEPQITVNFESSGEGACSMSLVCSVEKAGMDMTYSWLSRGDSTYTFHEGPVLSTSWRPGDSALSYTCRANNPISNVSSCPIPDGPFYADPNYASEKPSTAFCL

B1: ET200-034 (scFv)
scFv: QSVLTQPPSVSGAPGQRVTISCTGSTSNIGAGYDVHWYQQLPGTAPKLLINNNRNRPSGVPDRFSGSKSGTSATLGITGLQTGDEADYYCGTWDGSLTGAVFGGGTKLTVLGSRGGGGSGGGGSGGGGSLEMAEVQLVQSGAEVKKPGSSVKVSCKASGGTFSSYAISWVRQAPGQGLEWMGGIIPIFGTANYAQKFQGRVTITADESTSTAYMELSSLRSEDTAVYYCARGSALDHYDRWGQGTLVTVSSTSGQAGQHHHHHHGAYPYDVPDYAS
notes: screened as phage clone; entry is VL-linker-VH-His tag-HA tag
On to B1, for which the binding result in assay [1] was “no binding”; in assay [2] it was “no binding”; in assay [3], “binds”; in assay [4] it was “no binding”; with SLAMF9 protein, “no binding”.

B2: ET200-031 (scFv)
scFv: SYVLTQPPSVSVAPGKTARITCGGNNIGSKSVHWYQQKPGQAPVLVIYYDSDRPSGIPERFSGSNSGNTATLTISRVEAGDEADYYCQVWDSSSDYVFGTGTKVTVLGSRGGGGSGGGGSGGGGSLEMAEVQLVETGGGLVKPGGSLRLSCAASGFTVSDYYMSWIRQAPGKGLEWISYISGSGNSIYYADSVKGRFTISRDNAKNSLDLQMTSLRAEDTAVYYCARSTKFDYWGQGTLVTVSSTSGQAGQHHHHHHGAYPYDVPDYAS
notes: screened as phage clone; entry is VL-linker-VH-His tag-HA tag; also called ET200-31
Turning to B2, the binding result is “no binding” in assay [1]; “no binding” in assay [2]; “binds” in assay [3]; “no binding” in assay [4]; “no binding” with SLAMF9 protein.

B3: ET200-032 (scFv)
scFv: LPVLTQPPSASGTPGQRVTISCSGSSSNVGSYTVNWYRQLPGTAPTLLIYNNNQRPSGVPDRFSDSKSGTSASLTISGLQPEDEADYYCAAWDDRLGGYVFGTGTKVTVLGSRGGGGSGGGGSGGGGSLEMAEVQLVQSGAEVKKPGESLKISCKGSGYSFTNYWIGWVRQMPGKGLEWMGIIYPGDSDTRYSPSFQGQVTISADKSISTAYLQWSSLKASDTAMYYCARSTGSSHMSDEWGQGTLVTVSSTSGQAGQHHHHHHGAYPYDVPDYAS
notes: as for B1
In the case of B3, the binding result in assay [1] was “no binding”; in assay [2], “no binding”; in assay [3], “binds”; in assay [4], “no binding”; with SLAMF9 protein, “no binding”.

B4: ET200-040 (scFv)
scFv: QSVLTQPPSVSGAPGQRVTISCTGSSSNIGAGYDVHWYQQLPGTAPKLLIYGNSNRPSGVPDRFSGSKSGTSASLAITGLQAEDEADYYCQSYDSSLSGYVFGTGTKVTVLGSRGGGGSGGGGSGGGGSLEMAQVQLVQSGAEVKKPGASVKVSCKVSGYTLTELSMHWVRQAPGKGLEWMGGFDPEDGETIYAQKFQGRVTMTEDTSTDTAYMELSSLRSEDTAVYYCARYSGVYYDWGQGTLVTVSSTSGQAGQHHHHHHGAYPYDVPDYAS
notes: as for B1
As for B4, the binding result in assay [1] is recorded as “no binding”; in assay [2] it was “no binding”; in assay [3], “binds”; in assay [4] it was “no binding”; with SLAMF9 protein, “no binding”.

B5: ET200-033 (scFv)
scFv: NFMLTQPHSVSESPGKTVTISCTGSSGSIASNYVQWYQQRPGSAPTTVIYEDNQRPSGVPDRFSGSIDSSSNSASLTISGLKTEDEADYYCQSYDSSNHWVFGGGTKLTVLGSRGGGGSGGGGSGGGGSLEMAQVQLQQWGAGLLKPSETLSLTCAVYGGSFSGYYWSWIRQPPGKGLEWIGEITHSGRSNYNPSLKSRVTISVDTSKNQFSLKLSSVTAADTAVYYCARSSIMSDYWGQGTLVTVSSTSGQAGQHHHHHHGAYPYDVPDYAS
notes: as for B1
Take B5: the binding result in assay [1] is “no binding”; in assay [2], “no binding”; in assay [3] it was “binds”; in assay [4] it was “no binding”; with SLAMF9 protein, “no binding”.

B6: ET200-041 (scFv)
scFv: NFMLTQPHSVSGSPGKTVTISCTGSSGSIADNFVQWYQQRPGGVPTTVIFNDDERPSGVPDRFSGSIDTSSNSASLTISGLKTEDEADYYCQSYDNNNRGVFGGGTKLTVLGSRGGGGSGGGGSGGGGSLEMAQVQLVQSGAEVKKPGSSVKVSCKASGGTFSSYAISWVRQAPGQGLEWMGWMNPNSGNTGYAQKFQGRVTMTRNTSISTAYMELSNLRSEDTAVYYCARYYSYGYDWGQGTLVTVSSTSGQAGQHHHHHHGAYPYDVPDYAS
notes: as for B1
As for B6, the binding result in assay [1] is “no binding”; in assay [2], “no binding”; in assay [3], “binds”; in assay [4], “no binding”; with SLAMF9 protein it was “no binding”.

B7: ET200-038 (scFv)
scFv: QSVLTQPPSVSGAPGQRVTISCTGSSSNIGAGFDVHWYQLLPGTAPKLLIYANSNRPSGVPDRFSGSKSGTSASLAITGLLAEDEADYYCQSYDSSLSGVVFGGGTKLTVLGSRGGGGSGGGGSGGGGSLEMAQVQLVQSGAEVKKPGSSVKVSCKASGGTFSSYAISWVRQAPGQGLEWMGGIIPIFGTANYAQKFQGRVTITADESTSTAYMELSSLRSEDTAVYYCARGASFDRHDNWGQGTLVTVSSTSGQAGQHHHHHHGAYPYDVPDYAS
notes: as for B1
B7: the binding result in assay [1] is on record as “no binding”; in assay [2], “no binding”; in assay [3], “binds”; in assay [4], “no binding”; with SLAMF9 protein it was “no binding”.
